# B1: GIPR Ab: GIPR antibody 2.63.1 having a light and heavy chain sequence of SEQ ID NOs: 105 and 106 (antibody)
# heavy: MGWSYIILFLVATATDVHSQVQLQQPGAELVKPGASVKLSCRASGYTFTSNWMHWVKQRPRQGLEWIGEINPSNGRSNYNEKFKTKATLTVDKSSSTAYMQLSSLTSEDSAVYYCARFYYGTSWFAYWGQGTLVAVSAAKTTPPSVYPLAPGSAAQTNSMVTLGCLVKGYFPEPVTVTWNSGSLSSGVHTFPAVLQSDLYTLSSSVTVPSSTWPSETVTCNVAHPASSTKVDKKIVPRDCGCKPCICTVPEVSSVFIFPPKPKDVLTITLTPKVTCVVVDISKDDPEVQFSWFVDDVEVHTAQTQPREEQFASTFRSVSELPIMHQDWLNGKEFKCRVNSAAFPAPIEKTISKTKGRPKAPQVYTIPPPKEQMAKDKVSLTCMITDFFPEDITVEWQWNGQPAENYKNTQPIMDTDGSYFVYSKLNVQKSNWEAGNTFTCSVLHEGLHNHHTEKSLSHSPGK
# light: MKLPVRLLVLMFWIPASSSDVVMTQTPLSLPVSLGDQASISCRSSQSLVHSNGDTYLHWYLQKPGQSPKLLIYKVSNRFSGVPDRFSGSGSGTDFTLKISRVEAADLGVYFCSQSTHVPPFTFGGGTKLEIKRADAAPTVSIFPPSSEQLTSGGASVVCFLNNFYPKDINVKWKIDGSERQNGVLNSWTDQDSKDSTYSMSSTLTLTKDEYERHNSYTCEATHKTSTSPIVKSFNRNEC
# How the values were obtained:
# [1] = Body weight change in DIO mice treated for 5 weeks; format: in vivo; design: key to Significance of Body Weight Change: ns: not significant; *: p < 0.05; **: p < 0.005; ***: p < 0.001; ****: p < 0.0001; settings: subcutaneous; for Significance of Body Weight Change: male C57Bl/6 DIO mice, 2-way ANOVA with Dunnett's analysis; for change in body weight: DIO mice
# Protocol: (§1) Male C57Bl/6 DIO mice, 19-20 weeks old (13-14 weeks on high fat diet) at beginning of dosing, were placed into the following treatment groups: Group A—Vehicle, in which the animals were administered vehicle weekly; Group B—Dulaglutide, in which the animals were administered 0.1 mg/kg (2 nmol/kg) of dulaglutide twice per week; Group C—GIPR Ab, in which the animals were administered 5 mg/kg (33 nmol/kg) of antibody 2.63.1 (having a light and heavy chain sequence of SEQ ID NOs: 105 and 106, respectively) weekly and vehicle weekly (the latter being on the alternate dulaglutide dosing day); Group D—GDF15, in which the animals were administered 0.125 mg/kg (1 nmol/kg) of FcΔ10(−)-(G4S)4-GDF15 (SEQ ID NO: 39) (along with its heterodimerization partner, FcΔ10(+,K) (SEQ ID NO: 32)) weekly and vehicle weekly (the latter on the alternate dulaglutide dosing day); Group E—GDF15+Dulaglutide, in which the animals were administered 0.125 mg/kg (1 nmol/kg) of FcΔ10(−)-(G4S)4-GDF15) (along with its heterodimerization partner, FcΔ10(+,K)) weekly and 0.1 mg/kg (2 nmol/kg) of dulaglutide twice per week; Group F—GDF15+GIPR Ab, in which the animals were administered 0.125 mg/kg (1 nmol/kg) of FcΔ10(−)-(G4S)4-GDF15 (along with its heterodimerization partner, FcΔ10(+,K)) weekly and 5 mg/kg (33 nmol/kg) of antibody 2.63.1 weekly. The animals were dosed for 5 weeks with through subcutaneous injection.
# Body weight was measured twice per week.
# [2] = Food intake measured three consecutive days per week; format: in vivo; design: key: ns: not significant; *: p < 0.05; **: p < 0.005; ***: p < 0.001; ****: p < 0.0001; settings: male C57Bl/6 DIO mice, 2-way ANOVA with Dunnett's analysis
# Protocol: as §1
molecule,measurement,setting,value
B1,Significance of Body Weight Change,[1]; D0,ns
same,Significance of Body Weight Change,[1]; D3,ns
same,Significance of Body Weight Change,[1]; D7,ns
same,Significance of Body Weight Change,[1]; D10,ns
same,Significance of Body Weight Change,[1]; D14,ns
same,Significance of Body Weight Change,[1]; D17,ns
same,Significance of Body Weight Change,[1]; D21,ns
same,Significance of Body Weight Change,[1]; D31,ns
same,Significance of Body Weight Change,[1]; D35,ns
same,Significance of Body Weight Change,[1]; D-4,ns
same,change in body weight,[1]; five weeks after treatment,2.24%
same,change in body weight,[1]; two weeks after treatment,−0.91%
same,Significance of Food Intake Assay,[2]; D2,ns
same,Significance of Food Intake Assay,[2]; D8,ns
same,Significance of Food Intake Assay,[2]; D9,ns
same,Significance of Food Intake Assay,[2]; D10,ns
same,Significance of Food Intake Assay,[2]; D15,ns
same,Significance of Food Intake Assay,[2]; D16,ns
same,Significance of Food Intake Assay,[2]; D17,ns
same,Significance of Food Intake Assay,[2]; D22,* (p < 0.05)
same,Significance of Food Intake Assay,[2]; D23,ns
same,Significance of Food Intake Assay,[2]; D24,ns
same,Significance of Food Intake Assay,[2]; D29,ns
same,Significance of Food Intake Assay,[2]; D30,ns
same,Significance of Food Intake Assay,[2]; D31,ns
